Results as given in patent publication US20180105597A1.

How the values were obtained:
human C1q (human) [1] = target: human C1q (human) (UniProt P02745); assay: solid phase C1q binding ELISA, antibody coated in a titration, C1q added
FcγR3a (V) (human) = FcγR3a (V) (human) (UniProt P08637); assay: solid phase binding assay (Meso Scale), receptor coated, antibody titrated
FcγR1 (human) = FcγR1 (human) (UniProt P12314); assay: as above
FcγR2a(H) (human) = FcγR2a(H) (human) (UniProt P12318); assay: as above
human C1q (human) [2] = target: human C1q (human) (UniProt P02745); assay: cell-based or functional assay

human C1q (human), sequence (P02745 23-245 limits assumed, chain 1 of 3): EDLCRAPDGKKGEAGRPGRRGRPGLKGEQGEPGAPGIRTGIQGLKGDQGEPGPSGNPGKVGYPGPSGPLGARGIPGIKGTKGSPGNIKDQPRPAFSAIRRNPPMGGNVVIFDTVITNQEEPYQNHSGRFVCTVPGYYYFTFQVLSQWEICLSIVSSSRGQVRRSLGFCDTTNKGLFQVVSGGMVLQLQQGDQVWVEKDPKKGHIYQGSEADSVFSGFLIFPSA
human C1q (human), sequence (P02746 28-253 limits assumed, chain 2 of 3, further chain): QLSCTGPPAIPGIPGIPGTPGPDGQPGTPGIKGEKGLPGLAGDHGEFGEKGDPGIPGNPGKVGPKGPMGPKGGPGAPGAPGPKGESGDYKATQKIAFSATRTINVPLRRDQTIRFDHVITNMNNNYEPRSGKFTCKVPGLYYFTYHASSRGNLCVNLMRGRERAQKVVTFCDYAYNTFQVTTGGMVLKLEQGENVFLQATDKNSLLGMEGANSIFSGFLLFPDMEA
human C1q (human), sequence (P02747 29-245 limits assumed, chain 3 of 3, further chain): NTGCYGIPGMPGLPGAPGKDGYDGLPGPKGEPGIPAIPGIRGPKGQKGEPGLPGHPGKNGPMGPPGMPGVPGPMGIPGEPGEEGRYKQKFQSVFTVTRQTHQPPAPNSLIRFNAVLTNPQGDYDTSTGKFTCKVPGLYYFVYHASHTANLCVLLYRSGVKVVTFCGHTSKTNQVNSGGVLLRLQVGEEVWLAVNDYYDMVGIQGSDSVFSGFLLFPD
FcγR2a(H) (human), sequence (P12318 36-218): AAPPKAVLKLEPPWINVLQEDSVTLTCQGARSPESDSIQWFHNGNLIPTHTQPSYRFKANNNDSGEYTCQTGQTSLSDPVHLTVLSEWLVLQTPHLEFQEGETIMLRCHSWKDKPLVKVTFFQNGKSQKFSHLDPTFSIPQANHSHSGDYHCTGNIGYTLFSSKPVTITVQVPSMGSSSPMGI
FcγR3a (V) (human), sequence (P08637 17-208 F176V): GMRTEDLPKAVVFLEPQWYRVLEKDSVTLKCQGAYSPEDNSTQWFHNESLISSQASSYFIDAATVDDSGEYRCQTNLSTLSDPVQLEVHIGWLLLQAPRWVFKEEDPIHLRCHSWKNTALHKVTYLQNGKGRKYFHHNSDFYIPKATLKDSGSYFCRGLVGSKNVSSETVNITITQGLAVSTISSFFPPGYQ
FcγR1 (human), sequence (P12314 16-288): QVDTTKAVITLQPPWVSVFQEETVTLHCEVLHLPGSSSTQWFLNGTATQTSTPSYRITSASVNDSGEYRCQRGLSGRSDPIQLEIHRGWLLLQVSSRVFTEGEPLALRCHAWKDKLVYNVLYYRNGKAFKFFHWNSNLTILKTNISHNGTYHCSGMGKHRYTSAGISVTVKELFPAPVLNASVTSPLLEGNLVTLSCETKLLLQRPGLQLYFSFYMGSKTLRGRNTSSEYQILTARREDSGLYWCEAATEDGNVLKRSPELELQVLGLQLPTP

**Q.** What does the source list for LY3022859 (antibody)?
**A.** EC50 (human C1q (human) [1]): 19 nM; EC50 (FcγR3a (V) (human)): 5.7 nM; EC50 (FcγR1 (human)): 0.58 nM; EC50 (FcγR2a(H) (human)): 48 nM; CDC activity EC50 (nM), BxPC3 target cells, human complement (human C1q (human) [2]): > 200 nM; CDC activity EC50 (nM), HEK293 target cells, human complement (human C1q (human) [2]): > 200 nM; CDC activity EC50 (nM), MDA-MB-231 target cells, human complement (human C1q (human) [2]): > 200 nM; CDC activity EC50 (nM), TGFRβII-HEK target cells, human complement (human C1q (human) [2]): > 200 nM
